From paper PMC3869713

Assays:
CHK2 [1] = molecular target: CHK2 (UniProt O96017); assay: F-EMSA; conditions: 25 mM Tris-HCl pH 8.0, 10 mM NaCl, 25 mM KCl, 5 mM MgCl2, 0.01% IGEPAL CA630, 10 ug/ml yeast tRNA, SUPERase-In; 2 nM RNA, room temperature 2 h; F-EMSA on …
CHK2 [2] = molecular target: CHK2 (UniProt O96017); assay: fluorescence polarization; conditions: 25 mM Tris-HCl pH 8.0, 10 mM NaCl, 25 mM KCl, 5 mM MgCl2, 0.01% IGEPAL CA630, 10 ug/ml yeast tRNA, SUPERase-In; 2 nM RNA, room temperature 2 h; F-EMSA on …

Sequence of CHK2 (O96017 whole entry): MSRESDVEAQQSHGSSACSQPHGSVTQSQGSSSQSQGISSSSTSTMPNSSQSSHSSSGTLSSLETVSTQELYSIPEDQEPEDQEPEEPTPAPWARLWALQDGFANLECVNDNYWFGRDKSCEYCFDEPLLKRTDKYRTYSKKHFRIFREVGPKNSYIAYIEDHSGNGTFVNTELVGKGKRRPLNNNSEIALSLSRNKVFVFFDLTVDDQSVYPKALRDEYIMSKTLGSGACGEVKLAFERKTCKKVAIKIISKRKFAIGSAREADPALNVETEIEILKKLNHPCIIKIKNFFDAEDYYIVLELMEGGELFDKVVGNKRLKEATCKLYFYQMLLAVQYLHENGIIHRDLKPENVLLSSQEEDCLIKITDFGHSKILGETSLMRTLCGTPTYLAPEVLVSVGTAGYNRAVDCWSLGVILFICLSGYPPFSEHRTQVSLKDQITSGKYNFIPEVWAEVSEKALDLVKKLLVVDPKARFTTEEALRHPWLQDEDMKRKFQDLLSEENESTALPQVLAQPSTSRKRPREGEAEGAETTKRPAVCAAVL

GGGAAUGGAUCCACAUCUACGAAUUCGAUCGGUUCCAACGCUCUGUCGCCUAAGUGAACAGAUGAAGAAAAAAUAGCCCAAUAAGAGGCAACAAUCUUUCACUGCAGACUUGACGAAGCUU [C6M1]
Kd (CHK2 [1]): 180 nM
Kd (CHK2 [2]): 299 nM
